Experimental findings from PMC9001700 (Communications Biology, 2022) are described below.

The test has as its target SARS-CoV-2 S6P (SARS-CoV-2, Wuhan-Hu-1 (assumed), UniProt P0DTC2, stabilised, biotinylated (site not stated)). The experiment in a line: BLI. To be noted: both partners purified.

B1: CV3-25 Fab (Fab, V domains shown)
VH: QVQLVESGAEVKKPGESLKISCKGSGYTFTRYWIGWVRQMPGKGLEWMGIIYPGDSDTRYSPSFQGHVTISADKSISTAYLQWNSLKASDTAMYYCARLPQYCSNGVCQRWFDPWGQGTLVTVSS
VL: EIVLTQSPSSVSASVGDRVTITCRASQGISSWLAWYQQKPGKAPKLLIYAASSLQSGVPSRFSGSGSGTDFTLTISSLQPEDFATYYCQQGNSFPYTFGQGTNLEIK
notes: also called monovalent Fab
Broadly, the Kd is the equilibrium constant for the complex coming apart. Lower therefore signals higher affinity. In the case of B1, the Kd was roughly 600 pM.

B2: B6 mAb (antibody, V domains shown)
VH: EVQLQQSGPVLVKPGASVRMSCKASGYTITDYYLNWVKQSHGKSLEWLGVLNPYSGGSLYSQTFKGKATLTVDRSSSTAYLELNSLTSEDSAVYYCARQLGRGNGLDYWGQGTSVTVSS
VL: NIMMTQSPSSLAVSAGEKVTMSCKSSQSVLHSSDQKNYLAWYQQKPGQSPKLLIYWASTRESGVPDRFTGSGSGTDFTLTISSVQAEDLAVYFCHQYLSSYTFGGGTKLEIK
notes: source: 293 cells, purified using protein A resin
In the case of B2, the binding result was “binds”.
